Data on two molecules can be found in patent US20120122107A1 (AARHUS UNIVERSITET, published 2012).

For one assay, the target named is T1, BSA (UniProt P02769 25-607).
T1 construct: also called BSA-coated surface
Put plainly: SPR (BIAcore 3000), BSA-coated surface. The source says: Using SPR we determined the strength of the interaction between MAp44 and MBL, and compared it to that of MASP-3 and MBL. The purity of the rMBL has been reported before and the rMAp44 and rMASP-3 preparations were deemed pure by silver staining of SDS-PAGE gels (FIG. 4A). MBL was coupled to SPR chips at two different densities. An SPR chip, activated and blocked, was used for subtraction of the bulk refractive index background. A BSA-coated surface served as an extra background control, which gave no higher signal than the blank surface for both MASP-3 and MAp44. […] The measurements at the other coupling density of MBL were in agreement for both MASP-3 and MAp44. The calculated KDs were similar to the 0.8 nM reported for the binding of MASP-2 to MBL.
The SPR experiments were similar to those reported (7, 8). Using a BIAcore 3000 instrument (GE Healthcare®), binding of either rMASP-3 or rMAp44 was measured on 10940 RU of rMBL immobilized on a CM5 sensor chip (30 μg rMBL/ml used for derivatization), at a flow rate of 5 μl/min. Equivalent volumes of rMASP-3 and rMAp44 were injected at concentrations from 1 nM to 30 nM. Data were analyzed by global fitting to a 1:1 Langmuir binding model for several concentrations simultaneously using the BIAevaluation 4.1 software (GE Healthcare®).

Assay [1] concerns the target T2, recombinant mannan-binding lectin (UniProt P11226 21-248).
T2 construct: Oligomeric collectin; also called rMBL; MBL
Put plainly: affinity chromatography on rMBL-coupled beads.

T1 sequence (P02769 25-607 limits assumed): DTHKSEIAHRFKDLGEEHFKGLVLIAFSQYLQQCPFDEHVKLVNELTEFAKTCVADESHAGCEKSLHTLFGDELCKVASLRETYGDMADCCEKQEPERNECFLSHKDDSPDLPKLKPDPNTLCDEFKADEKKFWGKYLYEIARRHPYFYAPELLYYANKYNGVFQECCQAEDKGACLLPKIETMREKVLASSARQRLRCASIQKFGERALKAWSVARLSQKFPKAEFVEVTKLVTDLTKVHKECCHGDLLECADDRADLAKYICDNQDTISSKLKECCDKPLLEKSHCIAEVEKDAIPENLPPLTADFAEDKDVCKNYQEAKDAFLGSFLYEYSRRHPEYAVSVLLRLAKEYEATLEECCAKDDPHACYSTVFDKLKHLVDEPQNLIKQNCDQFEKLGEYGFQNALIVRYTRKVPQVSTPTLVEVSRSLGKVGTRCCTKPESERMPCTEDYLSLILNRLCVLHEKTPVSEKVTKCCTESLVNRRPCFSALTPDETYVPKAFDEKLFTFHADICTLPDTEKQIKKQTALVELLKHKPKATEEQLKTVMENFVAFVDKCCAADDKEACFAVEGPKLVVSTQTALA
T2 sequence (P11226 21-248 limits assumed): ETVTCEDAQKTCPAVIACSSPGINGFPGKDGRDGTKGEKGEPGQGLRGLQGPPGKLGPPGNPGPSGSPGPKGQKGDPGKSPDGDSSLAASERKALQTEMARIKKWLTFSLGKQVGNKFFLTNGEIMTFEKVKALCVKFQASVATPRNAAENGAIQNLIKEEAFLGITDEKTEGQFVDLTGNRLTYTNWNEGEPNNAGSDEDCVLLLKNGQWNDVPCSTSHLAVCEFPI

B1: recombinant MAp44 (mannan-binding lectin-associated protein of 44 kDa) (other)
chain: HTVELNNMFGQIQSPGYPDSYPSDSEVTWNITVPDGFRIKLYFMHFNLESSYLCEYDYVKVETEDQVLATFCGRETTDTEQTPGQEVVLSPGSFMSITFRSDFSNEERFTGFDAHYMAVDVDECKEREDEELSCDHYCHNYIGGYYCSCRFGYILHTDNRTCRVECSDNLFTQRTGVITSPDFPNPYPKSSECLYTIELEEGFMVNLQFEDIFDIEDHPEVPCPYDYIKIKVGPKVLGPFCGEKAPEPISTQSHSVLILFHSDNSGENRGWRLSYRAAGNECPELQPPVHGKIEPSQAKYFFKDQVLVSCDTGYKVLKDNVEMDTFQIECLKDGTWSNKIPTCKKNEIDLESELKSEQVTE
notes: Made by transient expression of the MAp44 cDNA (imaGenes clone IRAKp961F1682Q) in 293F cells and purified on rMBL-coupled beads; also called rMAp44; rMAP44
With B1, the binding result with BSA is “no binding”.

B2: recombinant MAp19 (other, UniProt O00187-2 16-185, looked up)
chain: TPLGPKWPEPVFGRLASPGFPGEYANDQERRWTLTAPPGYRLRLYFTHFDLELSHLCEYDFVKLSSGAKVLATLCGQESTDTERAPGKDTFYSLGSSLDITFRSDYSNEKPFTGFEAFYAAEDIDECQVAPGEAPTCDHHCHNHLGGFYCSCRAGYVLHRNKRTCSEQSL
notes: also called rMAp19; rMAP19
Consider B2, for which the binding result in assay [1] was “binds”.
